B1: Transmembrane protein 43 (Homo sapiens), Q9BTV4 (parent)
chain: MAANYSSTSTRREHVKVKTSSQPGFLERLSETSGGMFVGLMAFLLSFYLIFTNEGRALKTATSLAEGLSLVVSPDSIHSVAPENEGRLVHIIGALRTSKLLSDPNYGVHLPAVKLRRHVEMYQWVETEESREYTEDGQVKKETRYSYNTEWRSEIINSKNFDREIGHKNPSAMAVESFMATAPFVQIGRFFLSSGLIDKVDNFKSLSLSKLEDPHVDIIRRGDFFYHSENPKYPEVGDLRVSFSYAGLSGDDPDLGPAHVVTVIARQRGDQLVPFSTKSGDTLLLLHHGDFSAEEVFHRELRSNSMKTWGLRAAGWMAMFMGLNLMTRILYTLVDWFPVFRDLVNIGLKAFAFCVATSLTLLTVAAGWLFYRPLWALLIAGLALVPILVARTRVPAKKLE
partner: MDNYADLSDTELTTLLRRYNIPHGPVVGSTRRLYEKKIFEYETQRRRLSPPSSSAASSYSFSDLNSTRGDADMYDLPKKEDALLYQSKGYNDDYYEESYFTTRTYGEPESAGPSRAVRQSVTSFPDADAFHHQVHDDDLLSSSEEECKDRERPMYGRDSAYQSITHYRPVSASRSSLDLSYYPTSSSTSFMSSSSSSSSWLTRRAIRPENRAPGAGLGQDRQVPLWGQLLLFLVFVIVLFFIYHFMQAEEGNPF
B2: Transmembrane protein 43 (Homo sapiens), Q9BTV4 (parent)
chain: B1 chain

Variants of: B1
Conditions: with emd_human EMD

effect of a mutation on the interaction	Variant
with no effect	MAANYSSTSTRREHVKVKTSSQPGFLERLSETSGGMFVGLMAFLLSFYLIFTNEGRALKTATSLAEGLSLVVSPDSIHSVAPENEGRLVHVIGALRTSKLLSDPNYGVHLPAVKLRRHVEMYQWVETEESREYTEDGQVKKETRYSYNTEWRSEIINSKNFDREIGHKNPSAMAVESFMATAPFVQIGRFFLSSGLIDKVDNFKSLSLSKLEDPHVDIIRRGDFFYHSENPKYPEVGDLRVSFSYAGLSGDDPDLGPAHVVTVIARQRGDQLVPFSTKSGDTLLLLHHGDFSAEEVFHRELRSNSMKTWGLRAAGWMAMFMGLNLMTRILYTLVDWFPVFRDLVNIGLKAFAFCVATSLTLLTVAAGWLFYRPLWALLIAGLALVPILVARTRVPAKKLE [I91V]
with no effect	MAANYSSTSTRREHVKVKTSSQPGFLERLSETSGGMFVGLMAFLLSFYLIFTNEGRALKTATSLAEGLSLVVSPDSIHSVAPENKGRLVHIIGALRTSKLLSDPNYGVHLPAVKLRRHVEMYQWVETEESREYTEDGQVKKETRYSYNTEWRSEIINSKNFDREIGHKNPSAMAVESFMATAPFVQIGRFFLSSGLIDKVDNFKSLSLSKLEDPHVDIIRRGDFFYHSENPKYPEVGDLRVSFSYAGLSGDDPDLGPAHVVTVIARQRGDQLVPFSTKSGDTLLLLHHGDFSAEEVFHRELRSNSMKTWGLRAAGWMAMFMGLNLMTRILYTLVDWFPVFRDLVNIGLKAFAFCVATSLTLLTVAAGWLFYRPLWALLIAGLALVPILVARTRVPAKKLE [E85K]

Variants of: B1
Conditions: with emd_human EMD
Remark: another data set of the same source

effect of a mutation on the interaction	Variant
decreasing interaction strength	MAANYSSTSTRREHVKVKTSSQPGFLERLSETSGGMFVGLMAFLLSFYLIFTNEGRALKTATSLAEGLSLVVSPDSIHSVAPENEGRLVHVIGALRTSKLLSDPNYGVHLPAVKLRRHVEMYQWVETEESREYTEDGQVKKETRYSYNTEWRSEIINSKNFDREIGHKNPSAMAVESFMATAPFVQIGRFFLSSGLIDKVDNFKSLSLSKLEDPHVDIIRRGDFFYHSENPKYPEVGDLRVSFSYAGLSGDDPDLGPAHVVTVIARQRGDQLVPFSTKSGDTLLLLHHGDFSAEEVFHRELRSNSMKTWGLRAAGWMAMFMGLNLMTRILYTLVDWFPVFRDLVNIGLKAFAFCVATSLTLLTVAAGWLFYRPLWALLIAGLALVPILVARTRVPAKKLE [I91V]
decreasing interaction strength	MAANYSSTSTRREHVKVKTSSQPGFLERLSETSGGMFVGLMAFLLSFYLIFTNEGRALKTATSLAEGLSLVVSPDSIHSVAPENKGRLVHIIGALRTSKLLSDPNYGVHLPAVKLRRHVEMYQWVETEESREYTEDGQVKKETRYSYNTEWRSEIINSKNFDREIGHKNPSAMAVESFMATAPFVQIGRFFLSSGLIDKVDNFKSLSLSKLEDPHVDIIRRGDFFYHSENPKYPEVGDLRVSFSYAGLSGDDPDLGPAHVVTVIARQRGDQLVPFSTKSGDTLLLLHHGDFSAEEVFHRELRSNSMKTWGLRAAGWMAMFMGLNLMTRILYTLVDWFPVFRDLVNIGLKAFAFCVATSLTLLTVAAGWLFYRPLWALLIAGLALVPILVARTRVPAKKLE [E85K]

Variants of: B2
Conditions: with sun2_human SUN2, Q9UH99
Sequence of sun2_human SUN2, Q9UH99 (Q9UH99 whole entry): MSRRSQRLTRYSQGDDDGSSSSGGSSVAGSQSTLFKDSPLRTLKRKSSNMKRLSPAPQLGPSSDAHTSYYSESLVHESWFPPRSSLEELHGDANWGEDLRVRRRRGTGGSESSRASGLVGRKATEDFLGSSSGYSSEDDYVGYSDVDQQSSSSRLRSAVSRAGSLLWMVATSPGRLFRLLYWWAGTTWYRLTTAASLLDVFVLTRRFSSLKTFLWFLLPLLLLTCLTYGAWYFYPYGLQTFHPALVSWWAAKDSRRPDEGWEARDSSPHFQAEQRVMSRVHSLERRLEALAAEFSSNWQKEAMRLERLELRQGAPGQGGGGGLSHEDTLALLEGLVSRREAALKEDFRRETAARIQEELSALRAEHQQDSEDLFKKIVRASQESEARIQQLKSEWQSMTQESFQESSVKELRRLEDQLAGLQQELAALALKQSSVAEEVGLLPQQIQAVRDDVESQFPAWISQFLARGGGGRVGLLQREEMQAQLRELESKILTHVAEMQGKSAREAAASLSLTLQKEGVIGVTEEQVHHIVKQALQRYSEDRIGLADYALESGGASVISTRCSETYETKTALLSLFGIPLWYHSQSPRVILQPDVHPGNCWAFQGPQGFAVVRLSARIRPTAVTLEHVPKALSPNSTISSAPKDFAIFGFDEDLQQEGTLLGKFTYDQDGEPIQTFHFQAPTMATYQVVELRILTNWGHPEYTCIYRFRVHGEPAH

effect of a mutation on the interaction	Variant
decreasing interaction strength	MAANYSSTSTRREHVKVKTSSQPGFLERLSETSGGMFVGLMAFLLSFYLIFTNEGRALKTATSLAEGLSLVVSPDSIHSVAPENEGRLVHVIGALRTSKLLSDPNYGVHLPAVKLRRHVEMYQWVETEESREYTEDGQVKKETRYSYNTEWRSEIINSKNFDREIGHKNPSAMAVESFMATAPFVQIGRFFLSSGLIDKVDNFKSLSLSKLEDPHVDIIRRGDFFYHSENPKYPEVGDLRVSFSYAGLSGDDPDLGPAHVVTVIARQRGDQLVPFSTKSGDTLLLLHHGDFSAEEVFHRELRSNSMKTWGLRAAGWMAMFMGLNLMTRILYTLVDWFPVFRDLVNIGLKAFAFCVATSLTLLTVAAGWLFYRPLWALLIAGLALVPILVARTRVPAKKLE [I91V]
decreasing interaction strength	MAANYSSTSTRREHVKVKTSSQPGFLERLSETSGGMFVGLMAFLLSFYLIFTNEGRALKTATSLAEGLSLVVSPDSIHSVAPENKGRLVHIIGALRTSKLLSDPNYGVHLPAVKLRRHVEMYQWVETEESREYTEDGQVKKETRYSYNTEWRSEIINSKNFDREIGHKNPSAMAVESFMATAPFVQIGRFFLSSGLIDKVDNFKSLSLSKLEDPHVDIIRRGDFFYHSENPKYPEVGDLRVSFSYAGLSGDDPDLGPAHVVTVIARQRGDQLVPFSTKSGDTLLLLHHGDFSAEEVFHRELRSNSMKTWGLRAAGWMAMFMGLNLMTRILYTLVDWFPVFRDLVNIGLKAFAFCVATSLTLLTVAAGWLFYRPLWALLIAGLALVPILVARTRVPAKKLE [E85K]

Source: IntAct's records for PubMed 21391237
